Laboratory results taken from IntAct's records for PubMed 15975580.

Molecular target: zo2_human TJP2 (UniProt Q9UDY2)
Sequence (Q9UDY2 whole entry): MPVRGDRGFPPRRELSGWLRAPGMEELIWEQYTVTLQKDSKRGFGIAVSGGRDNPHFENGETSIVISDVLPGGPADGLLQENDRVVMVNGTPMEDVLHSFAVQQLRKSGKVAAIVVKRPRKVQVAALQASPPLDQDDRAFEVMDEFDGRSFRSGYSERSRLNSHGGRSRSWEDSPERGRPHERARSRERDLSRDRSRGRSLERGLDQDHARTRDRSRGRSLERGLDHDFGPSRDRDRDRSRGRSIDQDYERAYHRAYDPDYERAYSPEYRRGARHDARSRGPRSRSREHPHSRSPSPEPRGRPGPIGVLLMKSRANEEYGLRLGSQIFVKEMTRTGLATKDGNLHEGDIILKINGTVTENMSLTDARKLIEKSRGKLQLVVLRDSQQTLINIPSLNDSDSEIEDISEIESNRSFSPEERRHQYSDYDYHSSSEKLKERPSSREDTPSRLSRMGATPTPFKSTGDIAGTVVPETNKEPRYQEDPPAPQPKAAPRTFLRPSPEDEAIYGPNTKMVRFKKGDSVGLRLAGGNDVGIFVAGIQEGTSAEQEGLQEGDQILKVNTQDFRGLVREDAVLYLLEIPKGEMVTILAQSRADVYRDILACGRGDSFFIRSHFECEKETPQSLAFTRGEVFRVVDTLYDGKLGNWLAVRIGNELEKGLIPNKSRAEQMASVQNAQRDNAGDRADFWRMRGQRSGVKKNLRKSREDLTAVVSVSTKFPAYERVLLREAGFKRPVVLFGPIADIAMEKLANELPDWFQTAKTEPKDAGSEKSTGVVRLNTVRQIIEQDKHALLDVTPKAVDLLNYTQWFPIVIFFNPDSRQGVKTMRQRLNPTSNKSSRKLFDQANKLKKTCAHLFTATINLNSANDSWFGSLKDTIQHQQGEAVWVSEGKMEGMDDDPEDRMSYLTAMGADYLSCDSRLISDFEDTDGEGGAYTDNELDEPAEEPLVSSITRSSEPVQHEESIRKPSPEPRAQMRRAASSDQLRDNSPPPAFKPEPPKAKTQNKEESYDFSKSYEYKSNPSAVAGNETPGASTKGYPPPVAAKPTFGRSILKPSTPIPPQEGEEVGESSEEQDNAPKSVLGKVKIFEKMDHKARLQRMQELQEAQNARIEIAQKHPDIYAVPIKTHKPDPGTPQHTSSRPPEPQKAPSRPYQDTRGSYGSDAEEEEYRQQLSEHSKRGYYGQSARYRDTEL

Sequence of Protein scribble homolog (Homo sapiens), Q14160-1 P305L (Q14160 other isoform, or with tags, fused parts or gaps P305L): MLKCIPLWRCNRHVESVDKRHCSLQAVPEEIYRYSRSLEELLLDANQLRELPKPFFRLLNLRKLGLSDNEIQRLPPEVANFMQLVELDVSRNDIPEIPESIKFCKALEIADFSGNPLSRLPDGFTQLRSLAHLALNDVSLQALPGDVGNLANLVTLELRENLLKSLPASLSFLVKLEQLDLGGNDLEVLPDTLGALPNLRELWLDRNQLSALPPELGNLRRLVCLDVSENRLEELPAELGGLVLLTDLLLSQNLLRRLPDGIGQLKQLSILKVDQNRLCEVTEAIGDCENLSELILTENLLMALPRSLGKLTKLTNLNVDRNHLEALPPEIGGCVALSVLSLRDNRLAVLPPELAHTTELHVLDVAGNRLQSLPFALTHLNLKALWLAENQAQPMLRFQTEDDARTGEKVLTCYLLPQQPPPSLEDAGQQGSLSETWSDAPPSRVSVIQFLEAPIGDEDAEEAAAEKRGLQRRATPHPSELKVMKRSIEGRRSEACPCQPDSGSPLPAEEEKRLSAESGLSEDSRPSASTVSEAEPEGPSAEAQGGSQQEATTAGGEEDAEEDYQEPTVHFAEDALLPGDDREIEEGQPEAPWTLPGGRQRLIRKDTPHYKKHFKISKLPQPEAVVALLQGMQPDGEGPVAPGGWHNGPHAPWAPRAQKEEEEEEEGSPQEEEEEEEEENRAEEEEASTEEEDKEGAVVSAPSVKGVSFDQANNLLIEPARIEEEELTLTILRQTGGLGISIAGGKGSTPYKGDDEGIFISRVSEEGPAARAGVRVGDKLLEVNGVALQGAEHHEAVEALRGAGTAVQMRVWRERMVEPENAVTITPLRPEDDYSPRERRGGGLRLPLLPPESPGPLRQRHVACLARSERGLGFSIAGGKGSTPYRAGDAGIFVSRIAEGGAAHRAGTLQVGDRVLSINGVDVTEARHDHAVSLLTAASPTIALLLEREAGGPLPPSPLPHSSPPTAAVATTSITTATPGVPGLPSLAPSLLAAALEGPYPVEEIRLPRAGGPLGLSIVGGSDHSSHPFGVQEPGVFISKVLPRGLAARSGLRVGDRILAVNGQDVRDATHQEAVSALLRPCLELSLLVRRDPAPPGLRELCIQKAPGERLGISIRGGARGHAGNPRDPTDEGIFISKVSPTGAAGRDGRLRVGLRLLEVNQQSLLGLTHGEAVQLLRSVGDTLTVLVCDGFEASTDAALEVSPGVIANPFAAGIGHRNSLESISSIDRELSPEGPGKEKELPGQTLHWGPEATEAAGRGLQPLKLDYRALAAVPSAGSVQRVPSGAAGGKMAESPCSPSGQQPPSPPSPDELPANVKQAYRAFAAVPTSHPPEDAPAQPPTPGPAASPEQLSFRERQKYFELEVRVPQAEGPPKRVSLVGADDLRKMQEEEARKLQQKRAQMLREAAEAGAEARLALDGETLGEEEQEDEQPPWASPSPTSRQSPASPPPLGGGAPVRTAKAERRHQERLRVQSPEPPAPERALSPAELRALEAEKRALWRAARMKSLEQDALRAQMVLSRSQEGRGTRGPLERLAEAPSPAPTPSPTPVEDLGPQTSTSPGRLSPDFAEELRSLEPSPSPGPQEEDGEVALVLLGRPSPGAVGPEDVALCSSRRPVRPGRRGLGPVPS

## Protein scribble homolog (Homo sapiens), Q14160-1 P305L
  effect of a mutation on the interaction: decreasing interaction
